Data from publication PMC6327041 (Nature Communications, 2019).

Target: T1, KDM5A1-797 ΔPHD1 (Homo sapiens, UniProt P29375, DEL288-347/INS286GSGSGSG)
T1 construct: The KDM5A1-797 ΔPHD1 construct was generated after removing the residues Ser287-Lys347; His (N, cleaved yes); made in house; host or cells: Sf21 insect cells (baculovirus)
T1 sequence (P29375 with tags, fused parts or gaps INS286GSGSGSG/DEL288-347): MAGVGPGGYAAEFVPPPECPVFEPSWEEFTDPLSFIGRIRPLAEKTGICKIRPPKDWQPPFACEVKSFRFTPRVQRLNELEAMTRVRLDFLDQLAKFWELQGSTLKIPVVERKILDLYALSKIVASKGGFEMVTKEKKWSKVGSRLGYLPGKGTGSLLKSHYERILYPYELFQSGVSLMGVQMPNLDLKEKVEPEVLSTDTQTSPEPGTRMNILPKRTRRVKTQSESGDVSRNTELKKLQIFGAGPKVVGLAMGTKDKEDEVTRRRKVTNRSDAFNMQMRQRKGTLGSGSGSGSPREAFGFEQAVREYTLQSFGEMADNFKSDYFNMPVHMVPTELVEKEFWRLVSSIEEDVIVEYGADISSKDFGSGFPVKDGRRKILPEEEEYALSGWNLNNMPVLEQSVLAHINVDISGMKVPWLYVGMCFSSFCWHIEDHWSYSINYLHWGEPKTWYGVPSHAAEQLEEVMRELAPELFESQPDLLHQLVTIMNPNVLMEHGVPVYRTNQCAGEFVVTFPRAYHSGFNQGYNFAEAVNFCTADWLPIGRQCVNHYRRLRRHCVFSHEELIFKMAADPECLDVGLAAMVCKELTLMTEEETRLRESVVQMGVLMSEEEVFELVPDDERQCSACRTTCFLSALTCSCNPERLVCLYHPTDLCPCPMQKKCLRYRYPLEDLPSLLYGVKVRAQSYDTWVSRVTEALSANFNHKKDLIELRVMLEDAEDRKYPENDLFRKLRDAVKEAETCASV
Assay: KDM5A ΔPHD1 demethylation, formaldehyde release assay
Assay type: biochemical
Procedure: The KDM5A1-797 ΔPHD1 construct was generated after removing the residues Ser287-Lys347 and replacing them with a (GS)4 linker before cloning into a pFASTBAC HTA vector. The protocol for expression and purification of the KDM5A1-797 ΔPHD1 construct was the same as WT.
Michaelis–Menten parameters were determined using Graphpad Prism.

[1] = KDM5A1-797 ΔPHD1, n ≥ 3, s.e.m.

## Ac-H3K4me3 21mer: N-terminally acetylated 21mer H3K4me3 peptide, catalytic domain substrate
KDM5A1-797 ΔPHD1
  kcat/Km: 57.7 ± 13.7 M⁻¹ s⁻¹
[1]
  Km: 819 ± 133 µM
  kcat: 0.0472 ± 0.0035 s⁻¹
ΔPHD1 vs WT KDM5A1-797
  increase in Km on PHD1 deletion: eightfold
